The values below come from article doi:10.1101/2020.12.18.423418.

For this assay, the target named is SARS-CoV-2 S1 protein containing a C-terminal His-tag (Acro; S1N-C52H3) (SARS-CoV-2) (UniProt P0DTC2). Briefly: flow cytometry on cells.

For “recombinant fragment of human surfactant protein D (rfhSP-D) (from UniProt P35247 199-375) (domain or fragment)”, the percent reduction of S1 binding to ACE2 on cells at 10 μg/ml rfhSP-D worked out at 35%.
